assay: soluble on expression in E. coli; label from the status in PepcDB or PDB records

Row | Sequence | soluble on expression in E. coli
1 | MFERVREDIQSVFHRDPAARNALEVLTCYPGLHAVWLHRLAHGLWTSGWKWLARLVSNFGRWMTGIEIHPGARIGRRFFIDHGMGIVIGETAEIGDDVTLYQGVTLGGTTWNKGKRHPTLGNNVVVGAGAKVLGPFTVGEGAKVGSNAVVTKEVPPGATVVGIPGRIIMREDSEQQAKRQAMAEKLGFDAYGVSQDMPDPVARAIGQLLDHLQAVDGRLEGMCQALTALGSDYCAKDLPVLREEDFAGVKDEDGNPAALEHHHHHH | soluble
2 | MMDDILKQIKAGEVSGVQFKERILDKYDIACELVAFSNSHGGKLVVGIKDKTGETNALSYSEVQETTNLLSDIASENVVPSILIKIDTVEVEDGNLVVATVKEGLNKPYHDNKGIVWVKNGADKRKVFDNAELAEMMTDCGSFAPDEAGVRDATVNDLDATTIKQFLGNRFERVLDKKGLTGDAFNEASLDMICSAIAKGHDCEKILRNLRFIRPDGTLTVAAMLLFGKYTQRWMPMMTAKCICFAGNSVGSKVFRDKVNDADMEGNLLHQYDTIMDFFTRNLHNVQVGDEFNSMGKLEIPYTSLVEFTVNSLVHRSLNMKAPVRIFIFDNRVEIHSPGALPNGLTIDDIKAGTSMPRNTFLFNNAIYLLPYTGVGSGITRALDEDINVTFMNNDKAQEFVITVWRGESNQVEDLDTGLRHSDTDLDTGLRHSDTDLDTKRVTLTNKEKDIVNFCSVPRTTKEILDRIGVSMHSKNRERYITSLVAAGYLQMTNPDNPTASNQKYKKVNKRLEHHHHHH | soluble
3 | MGSDKIHHHHHHMSYLTEKLREEKVFKDPVHGYVHVSDKIIWDLIATKEFQRLRRIHQLGTTSLTFHGAEHSRFNHSLGVYEIVRQIIDVTFANEPQLDPEERMVALCAALLHDLGHGPFSHAFEKVFGTDHESYTQEIIIGDTEVNKILMRAGEEFPLKVAAIIKKNYPNQTLVKLISSQIDADRMDYLLRDAYYTGVSYGKFDLERILRVLRPSPDGNGVIVKYSGMHAVEDYIMSRYQMYQQVYFHPVSRSGEVLLWKILERAKKLYCAGYEFQATPIQVLPFFLNEVSLKDYIVLDDIVLMYYFSIWQEEEDPILSDLCSRFLNRRLLRYINYDPKEDAELYAELKGLLEKADIDPSYYLVIDSSSDLPYDYYLPGVGSGKDPIKLLMGNGELRELSTESPVVEAIGRERRTDIKLYYPLDFIESGHVEEAITERMIALIHAHSLKEK | not soluble
4 | MSRPAASLGLMRMIEAVPDRLDGSPRQLRRFWSDEFKETAVEQACQPGVNMSAVARQIGILPSQLYRWRRELLASDKPGEAPAAVDPQSVAPDANPVVEIVIDGIVVRADRHIEEAHLQRVIRAVRSALEHHHHHH | soluble
5 | MKNTSRDTVVMSWWDFGHLFAVAADRPVTFDGGSQNTPRAYWIGKALTTSNETLSRGILTMLSTSGDLAYETLDNYTDDSGKTAEILTATLGLPREEARAVMTGRYGLSDKEADSVLRYSHPAKPKPFVLVLSSDMLGKAPWWTYFGTWDFKKKTGSRYGYYPSLEHHHHHH | soluble
6 | SLTTEVVMENVTAFWEEGFGELFEKAKQNNNNRKTSNGDDSLSFSNFSLLGTPVLKDINFKIERGQLLAVAGSTGAGKTSLLMMIMGELEPSEGKIKHSGRISFCSQFSWIMPGTIKENIIFGVSYDEYRYRSVIKACQLEEDISKFAEKDNIVLGEGGITLSGGQRARISLARAVYKDADLYLLDSPFGYLDVLTEKEIFESCVCKLMANKTRILVTSKMEHLKKADKILILHEGSSYFYGTFSELQNLQPDFSSKLMGGGGGSGGGGSGGGGSDDIWPSGGQMTVKDLTAKYTEGGNAILENISFSISPGQRVGLLGRTGSGKSTLLSAFLRLLNTEGEIQIDGVSWDSITLQQWRKAFGVIPQKVFIFSGTFRKNLDPYEQWSDQEIWKVADEVGLRSVIEQFPGKLDFVLVDGGCVLSHGHKQLMCLARSVLSKAKILLLDQPSAHLDPVTYQIIRRTLKQAFADCTVILCEHRIEAMLECQQFLVIEENKVRQYDSIQKLLNERSLFRQAISPSDR | soluble
7 | MKKLTFEQLRSVQMSILDRVHLFCERHDLEYSLAGGTLLGAIRHKGYIPWDDDIDIMMPREDYEYLLQNFAKEYPDFTFFNLDTKHNPYPFLFSKLSLNDSVISNGRIKGVGINIDIFPIDSLGKEKGAAKLRFSLMKAINFFARIQRSRHDRANPIVNIAFRLFQKCLKLLPKKWFLSAIKGLCSTCSVNDDGYAVSIGSSYLAKEFTESSLYHDYTSCPFEDRQYKCIARYDDYLSMIYGDYMQLPKEQDRENHDNVGFIKEHLLPMLEHHHHHH | not soluble
8 | MAHHHHHHMEVVVKSIGTAFTVAVIPVLKDNYSYVIHDKATNTLAAVDVSVDIDPVIDYVRRLGGVDRTTDLRTILSTHKHHDHSGGNISLQKKLNAMGAFRIIGGANEPIPGVTEKVREGDHFSIGELKVDVLDAPCHTSGHVLYKVYHPQKAENGIALFTGDTMFVGGIGAFFEGDAVLMCSALRKVYNLNGACESSACDATDVQKRDNHTYIFPGHEYTVNFLRFSRDALPASHPDVSFVEAQLRRYTESVAGNVPTVPSTLAEEKRQNLFLRTCDEAFVRVMNKGETAVKLMDFLYNTCP | soluble
9 | MGSDKIHHHHHHMELVVDAHELKEWVYLLDKLVGTTEPTARFLSFFYRDGLWVSASDNCAKVEIFLGEIPRFEGSRIVSLDLVKYFLSDVKVSDVRITVLQERLVLKAGNEVLDVRCKTGEIPPGDGEEEFLCTLTKREFEGALNFASSNLDEGEFLILLFEEKDVLMFGASAGIMTLAQISTIPKKPFSTKIPYVTVRHIFKAFQRLDVQTLDFYEKSGKLVVKYPHFVMEVCGDEVSEEEIKKLKSLLEEKTAERIEARRQVLAKLVRKAAVLSRGDYATISRRGENLKVQVKRKNLSYTAELFVESGRDFVVVFPSKKLRSALARMDTERIFLEITERFLKISNFSGTRVIYLELEEFF | not soluble
10 | MGSDKIHHHHHHMEMEFNENNIDLETIIRDEVNKYLSRDIGDLPATQQAPLELREKYEKMEVPNKGRDIYEVLKDLNNEVLNYLYRPNHPRSFSFIPGPASRLSWLGDILTTANNIHASNFANATLPINIERNLINYLVGKIGYEIKPAGGVFVSGGSMANLTAIVAARDAQVEMEDIKKATVYLTSQTHHSVGKALHVAGFLKNNIRRIEYNDDFTMNTDSLKAAIDKDIEEGYKPAMVIATAGTTNTGSVDDFTTLGDICDHYNLWLHVDGAYGLSHILSDKAQHLFKGIERSDSASWDAHKLLFQTYSCAMVIVKEKNHLLQSFGEDAEYLDDIASDDDVIDPEMLGIELTRPARALKLWITLQVIGEDEIIERIKYGEGLAEYAEEYVSSLDNWRIISHANLSIVNFRYENSDLTEAQNNQLNSMAAQKIADSGYAIAYTTVLNNQRVIRLCTTNPLTTHDDIRETINRLDQYIGDYDMKDA | not soluble
11 | MSELSFAQLLEESFAATPRLGDVVKGTVVAIQKGYVIVDTGFKSESSIPAEEFINAQGELEVQIGDQVDVVLKAVEDGFGETVVSRGDAKRNEAWIALEKAFEEQATVIGFVNGKVKGGFTVELNGVRAFLPGSLVDTRPVRDSLNLEGKELEFKVIKLDQKRNNVVVSRRAVIESENSQDRDEVLANLVEGSVITGTVKNLTDYGAFVDLGGVDGLLHITDMAWKRVKHPSEVVAVGQEVTVKVLKFDKEKTRVSLGLKQLGQDPWAAIAHNHPVNSKLTGKVTNLTDYGCFVEILDGVEGLVHVSEMDWTNKNIHPSKVVSVGDVVEVMVLEVDEERRRISLGLKQCKANPWEHFAATHNKNDKVTGKIKSITDFGIFIGLEGGIDGLVHLSDISWNVTGEEAVRNYKKGDEVEAVVLQVDAAKERISLGIKQLESDPFTNFVDSTKKGAILTGKVVDVDTKGVKVELEGGVEAFIRANEATRERVEDITTVISVGDSIEAKYTGIDRKSRLVNLSVRAKDEAEESAALAQVNKQDVEMPNAMTAAFQAAKGELEHHHHHH | soluble
12 | MGSDKIHHHHHHMLGSNMLLTNRIDLRSYHTESCSHTHDFAQLVLPVSGSMELEVGHYSGVVNDDIGVYIAPNEQHCFAGSQKNLFLVIDATTQNSLRDEAFESNILNLTASTKKLIQFTHHYLAHNERDFFTDSLINQLLFHFAASSFSPEPDLVVIRAKQWIDLYFADSVNVNRVAKHCYLSISQLQRRFKQMLGCGIAEYWRMKKLLHAKKLLSQKNCSIEAIAFEVGYENLPAFSRRFSKVFGESPSQWRSKALTAKKMREIDK | not soluble

— the DeepSol protein solubility set
